# Experimental data reported in patent publication US20240254234A1 (NOVIMMUNE, published 2024).
# Residue numbers refer to the chain shown, from its start.
# B1: S79 mAb (antibody, V domains shown)
# VH: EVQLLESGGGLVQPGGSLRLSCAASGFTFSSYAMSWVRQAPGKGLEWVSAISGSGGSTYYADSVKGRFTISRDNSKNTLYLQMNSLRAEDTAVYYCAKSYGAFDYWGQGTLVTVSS
# VL: QSALTQPASVSGSPGQSITISCTGTSSDVFRPPLVSWYQQHPGKAPKLMIYFASLRPSGVSNRFSGSKSGNTASLTISGLQAEDEADYYCSSWDHTGDGHVFGGGTKLTVL
# notes: also called bivalent PD-L1 mAb based on the anti-PD-L1 arm S79
# B2: AI3S79/N (bispecific antibody, human IgG1, kappa, lambda, L234A L235A)
# heavy: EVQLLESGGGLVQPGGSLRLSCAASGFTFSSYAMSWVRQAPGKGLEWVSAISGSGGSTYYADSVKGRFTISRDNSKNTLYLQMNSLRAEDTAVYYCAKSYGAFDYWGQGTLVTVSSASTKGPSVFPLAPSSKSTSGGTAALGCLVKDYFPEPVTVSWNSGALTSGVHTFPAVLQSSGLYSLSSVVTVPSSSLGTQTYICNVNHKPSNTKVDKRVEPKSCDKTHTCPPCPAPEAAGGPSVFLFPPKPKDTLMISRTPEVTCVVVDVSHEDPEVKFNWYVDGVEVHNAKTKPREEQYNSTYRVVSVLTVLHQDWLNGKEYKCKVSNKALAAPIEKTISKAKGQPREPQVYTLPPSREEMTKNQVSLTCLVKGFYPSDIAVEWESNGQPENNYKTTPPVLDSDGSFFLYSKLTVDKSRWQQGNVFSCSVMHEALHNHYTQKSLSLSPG
# light 1: not shown
# light 2: QSALTQPASVSGSPGQSITISCTGTSSDVFRPPLVSWYQQHPGKAPKLMIYFASLRPSGVSNRFSGSKSGNTASLTISGLQAEDEADYYCSSWDHTGDGHVFGGGTKLTVLGQPKAAPSVTLFPPSSEELQANKATLVCLISDFYPGAVTVAWKADSSPVKAGVETTTPSKQSNNKYAASSYLSLTPEQWKSHRSYSCQVTHEGSTVEKTVAPTECS
# notes: also called PD-L1xCD28 bsAb; PD-L1xCD28 κλ body
# What was measured:
# [1] = molecular target: PD-L1 on engineered CHO-K1 artificial Antigen Presenting Cells (aAPC) (Homo sapiens (Human), UniProt Q9NZQ7 19-290); experiment: cell-based or functional assay
# [2] = molecular target: T1, PD-L1 on HPAC cells (pre-activated with IFNγ) (human, UniProt Q9NZQ7 19-290); experiment: flow cytometry on IFNγ-activated HPAC cells (PD-L1+), anti-human IgG secondary antibody, geometric mean
# T1 construct: whole, on cells; also called PD-L1 expressing HPAC cells
# Procedure: Cells were harvested, checked for viability and counted. 200′000 cells were incubated for 15 minutes at 4° C. with increasing concentrations of the antibodies diluted in FACS buffer (PBS 2% BSA, 0.1% NaN3). Cells were washed twice with cold FACS buffer and re-incubated for further 15 minutes at 4′C with a suitable anti-human IgG secondary antibody. Cells were washed twice with cold FACS buffer and resuspended in 150 μl FACS buffer with a compatible viability marker. Binding of antibodies to living cells was measured by flow cytometry using a Cytoflex Platform (Beckman Coulter). Data was analyzed with FlowJo™ v10 software (BD Life Sciences) and dose-response binding curves were drawn using GiraphPad Prism 9 software.
# [3] = molecular target: T2, cynomolgus CD28 (cynomolgus, UniProt Q0PDN3 19-152); experiment: Octet (printed: Octet surface plasmon resonance)
# T2 construct: Recombinant form not described; also called CD28 (Cynomolgus)
# [4] = molecular target: T3, human CD32a R167 (human, UniProt P12318 36-218); experiment: Octet (printed: Octet surface plasmon resonance)
# T3 construct: Allelic variant named only as R167; also called hCD32a R167
# T3 sequence (looked up): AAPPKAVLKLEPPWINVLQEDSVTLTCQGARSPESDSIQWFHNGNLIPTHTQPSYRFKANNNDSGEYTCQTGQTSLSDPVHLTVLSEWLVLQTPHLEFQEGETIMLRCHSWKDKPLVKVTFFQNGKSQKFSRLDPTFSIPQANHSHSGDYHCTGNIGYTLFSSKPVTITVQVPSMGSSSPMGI
# [5] = molecular target: T4, human CD32a H167 (human, UniProt P12318 36-218); experiment: Octet (printed: Octet surface plasmon resonance)
# T4 construct: Allelic variant named only as H167; also called hCD32a H167
# T4 sequence (looked up): T3 sequence (looked up) with R132H
# [6] = molecular target: T5, human CD32b (human, UniProt P31994 43-217); experiment: Octet (printed: Octet surface plasmon resonance)
# T5 construct: also called hCD32b
# T5 sequence (looked up): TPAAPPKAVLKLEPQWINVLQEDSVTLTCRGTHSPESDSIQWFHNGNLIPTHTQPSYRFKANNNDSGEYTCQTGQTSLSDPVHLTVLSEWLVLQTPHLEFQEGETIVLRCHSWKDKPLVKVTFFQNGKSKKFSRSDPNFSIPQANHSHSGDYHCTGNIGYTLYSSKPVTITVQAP
# [7] = molecular target: T6, human CD16a V158 (human, UniProt P08637 17-208); experiment: Octet (printed: Octet surface plasmon resonance)
# T6 construct: Allelic variant named only as V158; also called hCD16a V158
# [8] = molecular target: T7, human CD16a F158 (human, UniProt P08637 17-208); experiment: Octet (printed: Octet surface plasmon resonance)
# T7 construct: Allelic variant named only as F158; also called hCD16a F158
# [9] = molecular target: T8, human CD16b NA2 (human, UniProt O75015 17-200, limits assumed); experiment: Octet (printed: Octet surface plasmon resonance)
# T8 construct: also called hCD16b NA2
# [10] = molecular target: T9, cynomolgus CD16 (cynomolgus, UniProt Q8SPW2 17-208); experiment: Octet (printed: Octet surface plasmon resonance)
# T9 construct: also called cyCD16
# [11] = molecular target: T10, mouse CD64 (mouse, UniProt P26151 25-297); experiment: Octet (printed: Octet surface plasmon resonance)
# T10 construct: also called mCD64
# T10 sequence (looked up): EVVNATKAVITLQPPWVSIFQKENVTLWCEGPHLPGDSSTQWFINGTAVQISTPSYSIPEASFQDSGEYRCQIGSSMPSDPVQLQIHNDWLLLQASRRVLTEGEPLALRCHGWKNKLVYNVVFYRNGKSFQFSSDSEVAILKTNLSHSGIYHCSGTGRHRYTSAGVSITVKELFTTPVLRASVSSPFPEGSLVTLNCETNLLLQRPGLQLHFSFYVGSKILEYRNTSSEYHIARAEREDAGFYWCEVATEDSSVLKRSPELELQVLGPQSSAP
# [12] = molecular target: T11, mouse CD32b (mouse, UniProt P08101 30-207); experiment: Octet (printed: Octet surface plasmon resonance)
# T11 construct: also called mCD32b
# T11 sequence (looked up): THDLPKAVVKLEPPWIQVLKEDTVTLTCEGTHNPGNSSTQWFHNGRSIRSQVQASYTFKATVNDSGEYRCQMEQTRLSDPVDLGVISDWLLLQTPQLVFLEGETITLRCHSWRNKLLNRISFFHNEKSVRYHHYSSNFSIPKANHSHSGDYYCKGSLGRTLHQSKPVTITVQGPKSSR
# [13] = molecular target: T12, mouse CD16 (mouse, UniProt P08508 31-215); experiment: Octet (printed: Octet surface plasmon resonance)
# T12 construct: also called mCD16
# T12 sequence (looked up): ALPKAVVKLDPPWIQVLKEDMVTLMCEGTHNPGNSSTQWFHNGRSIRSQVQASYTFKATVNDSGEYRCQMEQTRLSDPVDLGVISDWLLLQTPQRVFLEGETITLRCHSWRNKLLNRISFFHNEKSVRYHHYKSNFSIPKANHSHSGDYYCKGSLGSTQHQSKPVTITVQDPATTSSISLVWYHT
# [14] = molecular target: T13, human CD28 (human, UniProt P10747 19-152); experiment: Octet (printed: Octet surface plasmon resonance), n = 2
# T13 construct: Recombinant form not described; also called CD28 (Human)
# [15] = molecular target: T14, mouse CD28 (mouse, UniProt P31041 20-149, limits assumed); experiment: as above
# T14 construct: Recombinant form not described; also called CD28 (Mouse)
# [16] = molecular target: T15, human PD-L1 (human, UniProt Q9NZQ7 19-238); experiment: as above
# T15 construct: Recombinant form not described; also called PD-L1 (Human); B7-H1
# [17] = molecular target: T16, cynomolgus PD-L1 (cynomolgus, UniProt G7PSE7 19-238); experiment: as above
# T16 construct: Recombinant form not described; also called PD-L1 (Cynomolgus)
# [18] = molecular target: T17, mouse PD-L1 (mouse, UniProt Q9EP73 19-238, limits assumed); experiment: as above
# T17 construct: Recombinant form not described; also called PD-L1 (Mouse)
# [19] = molecular target: T18, mouse neonatal Fc Receptor (FcRn) (mouse, UniProt Q61559 22-297; P01887 21-119); experiment: as above
# T18 construct: also called FcRn (Mouse)
# T18 sequence (looked up) 1: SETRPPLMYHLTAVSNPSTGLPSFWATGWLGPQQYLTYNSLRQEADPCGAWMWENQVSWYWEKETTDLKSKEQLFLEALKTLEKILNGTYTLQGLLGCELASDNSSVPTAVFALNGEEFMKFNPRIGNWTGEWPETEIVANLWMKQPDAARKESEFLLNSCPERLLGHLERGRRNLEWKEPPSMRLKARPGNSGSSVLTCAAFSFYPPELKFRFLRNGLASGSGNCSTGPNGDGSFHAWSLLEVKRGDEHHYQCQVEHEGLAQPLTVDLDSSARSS
# T18 sequence (looked up) 2: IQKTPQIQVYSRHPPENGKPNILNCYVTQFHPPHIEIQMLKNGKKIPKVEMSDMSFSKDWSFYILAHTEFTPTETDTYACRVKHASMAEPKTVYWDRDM
# [20] = molecular target: T19, human neonatal Fc Receptor (FcRn) (human, UniProt P55899 24-297; P61769 21-119); experiment: as above
# T19 construct: also called FcRn (Human)
# [21] = molecular target: T20, cynomolgus neonatal Fc Receptor (FcRn) (cynomolgus, UniProt Q8SPV9 24-297; Q8SPW0 21-119); experiment: as above
# T20 construct: also called FcRn (Cynomolgus)
# [22] = molecular target: T21, human CD64 (human, UniProt P12314 16-288); experiment: Octet (printed: Octet surface plasmon resonance), n = 1
# T21 construct: also called hCD64
# T21 sequence (P12314 16-288 limits assumed): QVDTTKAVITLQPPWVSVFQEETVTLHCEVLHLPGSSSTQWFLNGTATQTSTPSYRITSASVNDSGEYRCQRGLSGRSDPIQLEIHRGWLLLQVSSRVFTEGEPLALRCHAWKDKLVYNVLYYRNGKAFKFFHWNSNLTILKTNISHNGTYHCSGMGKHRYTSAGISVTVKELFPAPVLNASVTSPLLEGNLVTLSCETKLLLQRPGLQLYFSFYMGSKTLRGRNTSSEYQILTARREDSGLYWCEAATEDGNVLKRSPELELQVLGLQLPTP
# T1 sequence (Q9NZQ7 19-290): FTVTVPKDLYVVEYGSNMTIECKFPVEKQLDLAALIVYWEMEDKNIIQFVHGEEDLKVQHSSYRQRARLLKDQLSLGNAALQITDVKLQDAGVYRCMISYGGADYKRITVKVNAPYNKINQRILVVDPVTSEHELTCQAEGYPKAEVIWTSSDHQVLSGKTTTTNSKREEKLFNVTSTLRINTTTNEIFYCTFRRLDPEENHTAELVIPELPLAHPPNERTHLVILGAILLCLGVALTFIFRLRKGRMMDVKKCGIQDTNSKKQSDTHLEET
# T6 sequence (P08637 17-208 F176V limits assumed): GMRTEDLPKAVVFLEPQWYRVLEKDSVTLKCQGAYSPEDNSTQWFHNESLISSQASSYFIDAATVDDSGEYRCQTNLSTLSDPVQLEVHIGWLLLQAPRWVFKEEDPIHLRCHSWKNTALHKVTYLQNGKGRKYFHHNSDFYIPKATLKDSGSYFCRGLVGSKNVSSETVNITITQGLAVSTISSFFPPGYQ
# T16 sequence (G7PSE7 entry or part of it): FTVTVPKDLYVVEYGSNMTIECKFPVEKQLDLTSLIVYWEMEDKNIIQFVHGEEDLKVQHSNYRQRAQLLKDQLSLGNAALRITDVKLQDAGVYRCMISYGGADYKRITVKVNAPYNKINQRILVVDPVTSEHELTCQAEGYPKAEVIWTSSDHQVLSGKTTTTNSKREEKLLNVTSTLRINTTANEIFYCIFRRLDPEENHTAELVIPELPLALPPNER
# T8 sequence (O75015 17-200 N65S limits assumed): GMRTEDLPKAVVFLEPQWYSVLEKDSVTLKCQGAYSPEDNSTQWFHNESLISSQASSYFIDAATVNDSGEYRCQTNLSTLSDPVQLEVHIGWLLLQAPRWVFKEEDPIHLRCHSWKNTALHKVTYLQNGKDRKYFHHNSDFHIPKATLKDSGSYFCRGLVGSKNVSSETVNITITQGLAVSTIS
# Sequence of PD-L1 on engineered CHO-K1 artificial Antigen Presenting Cells (aAPC) (Q9NZQ7 19-290 limits assumed, change not shown): as the sequence (Q9NZQ7 19-290) above
# T15 sequence (Q9NZQ7 19-238 limits assumed): as the sequence (G7PSE7 entry or part of it) above, with T33A, S34A, N62S, Q68R, R82Q, L173F, A185T, I192T, L215H counted along it
# T19 sequence (P55899 24-297 limits assumed, chain 1 of 2): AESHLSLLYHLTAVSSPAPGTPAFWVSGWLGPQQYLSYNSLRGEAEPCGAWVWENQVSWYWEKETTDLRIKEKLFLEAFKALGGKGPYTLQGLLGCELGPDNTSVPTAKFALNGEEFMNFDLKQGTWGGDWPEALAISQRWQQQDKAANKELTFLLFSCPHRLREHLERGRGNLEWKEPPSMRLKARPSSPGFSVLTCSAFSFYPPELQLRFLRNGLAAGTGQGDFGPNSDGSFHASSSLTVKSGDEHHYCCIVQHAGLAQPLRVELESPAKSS
# T19 sequence (P61769 21-119 limits assumed, chain 2 of 2): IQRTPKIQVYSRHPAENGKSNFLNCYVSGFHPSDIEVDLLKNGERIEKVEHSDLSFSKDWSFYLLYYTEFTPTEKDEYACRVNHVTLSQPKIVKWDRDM
# T7 sequence (P08637 17-208 limits assumed): as the sequence (P08637 17-208 F176V limits assumed) above, with V160F counted along it
# T17 sequence (Q9EP73 19-238 limits assumed): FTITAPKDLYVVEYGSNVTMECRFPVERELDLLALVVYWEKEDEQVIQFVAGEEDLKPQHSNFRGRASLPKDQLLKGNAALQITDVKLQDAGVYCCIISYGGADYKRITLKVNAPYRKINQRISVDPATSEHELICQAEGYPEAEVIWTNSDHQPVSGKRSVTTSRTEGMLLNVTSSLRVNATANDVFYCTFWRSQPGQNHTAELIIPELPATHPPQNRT
# T14 sequence (P31041 20-149 limits assumed): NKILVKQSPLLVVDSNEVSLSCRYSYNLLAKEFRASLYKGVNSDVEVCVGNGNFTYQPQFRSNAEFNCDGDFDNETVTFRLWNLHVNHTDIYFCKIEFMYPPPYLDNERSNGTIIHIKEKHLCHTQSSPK
# T9 sequence (Q8SPW2 17-208 limits assumed): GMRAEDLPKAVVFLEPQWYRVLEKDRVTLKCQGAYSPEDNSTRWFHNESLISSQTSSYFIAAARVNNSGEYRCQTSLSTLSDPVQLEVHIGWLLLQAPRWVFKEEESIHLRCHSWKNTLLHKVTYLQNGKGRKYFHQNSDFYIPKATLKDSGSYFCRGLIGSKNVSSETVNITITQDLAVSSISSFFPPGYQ
binder,measurement,setting,value
B1,EC50 (read off the curve): RLU in the PD-1/PD-L1 blockade bioassay (blocked partner m28),[1],~0.02 µg/mL
same,EC50 (read off the curve),[2],~0.6 µg/mL
B2,Kd,[3],~54 nM
same,binding result,[4],no binding (tested: highest tested concentration: 2000 nM)
same,binding result,[5],no binding (tested: highest tested concentration: 2000 nM)
same,binding result,[6],no binding (tested: highest tested concentration: 2000 nM)
same,binding result,[7],no binding (tested: highest tested concentration: 2000 nM)
same,binding result,[8],no binding (tested: highest tested concentration: 2000 nM)
same,binding result,[9],no binding (tested: highest tested concentration: 2000 nM)
same,binding result,[10],no binding (tested: highest tested concentration: 2000 nM)
same,binding result,[11],no binding (tested: highest tested concentration: 2000 nM)
same,binding result,[12],no binding (tested: highest tested concentration: 2000 nM)
same,binding result,[13],no binding (tested: highest tested concentration: 2000 nM)
same,Kd,[14],54 nM
same,Kd,[15],11100 nM
same,Kd,[16],0.3 nM
same,Kd,[17],1.8 nM
same,Kd,[18],0.79 nM
same,Kd,[19],0.06 nM
same,Kd,[20],7.1 nM
same,Kd,[21],8.6 nM
same,Kd,[22],804 nM
same,EC50 (read off the curve),[2],~0.9 µg/mL
